Data: the supplement of paper PMC10065799, “High-throughput profiling of sequence recognition by tyrosine kinases and SH2 domains using bacterial peptide display” (eLife, 2023)

The sequences below were run against Hck (UniProt P08631) (assay: phosphorylation enrichment, bacterial display (enrichment ratio); higher = better substrate or ligand; peptides without Tyr show the background).
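Also: 11-residue human phosphosite peptides and single-mutation variants displayed on the E. coli surface, counted by deep sequencing, each peptide's frequency after selection divided by its frequency in the unselected input library; frequency after pTyr selection over input frequency; kinase dosed for 20-30% of maximal phosphorylation in three min.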

Chain of Hck (P08631 whole entry, looked up): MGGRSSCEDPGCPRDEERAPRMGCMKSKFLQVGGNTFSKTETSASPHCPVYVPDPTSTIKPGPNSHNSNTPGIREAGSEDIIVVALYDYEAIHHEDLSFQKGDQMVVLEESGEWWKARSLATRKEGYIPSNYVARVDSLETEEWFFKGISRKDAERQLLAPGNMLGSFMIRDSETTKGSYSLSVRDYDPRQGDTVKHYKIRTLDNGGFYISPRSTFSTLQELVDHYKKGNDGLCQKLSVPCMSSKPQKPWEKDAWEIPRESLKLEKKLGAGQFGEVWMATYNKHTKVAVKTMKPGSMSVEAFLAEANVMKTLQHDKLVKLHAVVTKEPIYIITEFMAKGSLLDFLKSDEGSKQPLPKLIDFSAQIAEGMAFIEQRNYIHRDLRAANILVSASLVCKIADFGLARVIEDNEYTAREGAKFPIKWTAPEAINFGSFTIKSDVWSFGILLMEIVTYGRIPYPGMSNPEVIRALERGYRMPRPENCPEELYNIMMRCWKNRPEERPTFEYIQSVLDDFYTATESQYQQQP

Sequence | phosphorylation enrichment
IFKAAYFGVFD [SLC25A4_Y191_R188K_YF] | 0.504
VVSMNYRVGAL [BCHE_Y174] | 0.43
HIILLYIFLKN [STXBP1_Y411_R406H] | 0.501
RSDEDYLFREE [POR_Y573_YF] | 0.983
SDVSSYLEGQA [GCG_Y110] | 0.488
YDKEYYSVHNK [MET_Y1235] | 0.922
LGQRIYQYIQS [DYRK1B_Y271] | 8.12
SQAPGYSFTAA [CYCS_Y47_G42S_YF] | 0.362
QPGTDYKIFLF [FN1_Y1970_YF] | 0.924
HFMELYDLNRD [BBS2_Y648_R643H_YF] | 1.48
KASRKYYAMKI [AKT3_Y173_G171R] | 0.339
TSHKGYVAFLE [CARD9_Y76_G72S] | 0.38
DTKAFYPEEIS [HSPA1A_Y115_E110D] | 0.393
YLRTGYSIPYG [TGM1_Y370_V372I] | 0.39
DVCKNYTEAKD [ALB_Y343_A344T] | 0.494
ALCHYYKLNII [ETV6_Y402_R399C] | 1.09
SMEGLYSSAQD [CLIC5_Y111_T114A] | 3.19
APSGNYVACGG [GNB1_Y111] | 0.429
ATGGFYSYGGG [KRT24_Y120] | 1.8
GFKVRYATWSI [FGFR1_Y210_YF] | 0.512
FKDGQYWIRGW [ACSF3_Y466_R471W] | 0.799
LKGIRYLTSGL [PIGA_Y82_R77L] | 0.937
MFNPCYGLFEY [NEDD4L_Y680_Y679C] | 2.54
GGQVFYNSEYG [FLT4_Y1333] | 0.462
SSPMKYQQNVS [EGFEM1P_Y160] | 0.412
MNPPPYSQLLS [FGF23_Y154_F157L] | 0.568
SDVCMYRKNTF [SYNE2_Y570_I574T_YF] | 0.456
SGGSSYGSGGG [KRT1_Y532] | 0.396
KKMEVYQSIAD [MYBPC3_Y548_L545M] | 1.47

What follows are sequences tested on Fer (mouse) in the same assay as above.

Sequence | phosphorylation enrichment
IFKAAYFGVFD [SLC25A4_Y191_R188K_YF] | 0.534
VVSMNYRVGAL [BCHE_Y174] | 0.333
HIILLYIFLKN [STXBP1_Y411_R406H] | 0.495
RSDEDYLFREE [POR_Y573_YF] | 0.891
SDVSSYLEGQA [GCG_Y110] | 0.775
YDKEYYSVHNK [MET_Y1235] | 0.425
LGQRIYQYIQS [DYRK1B_Y271] | 18.1
SQAPGYSFTAA [CYCS_Y47_G42S_YF] | 0.546
QPGTDYKIFLF [FN1_Y1970_YF] | 0.899
HFMELYDLNRD [BBS2_Y648_R643H_YF] | 0.784
KASRKYYAMKI [AKT3_Y173_G171R] | 0.589
TSHKGYVAFLE [CARD9_Y76_G72S] | 0.315
DTKAFYPEEIS [HSPA1A_Y115_E110D] | 0.479
YLRTGYSIPYG [TGM1_Y370_V372I] | 0.384
DVCKNYTEAKD [ALB_Y343_A344T] | 0.511
ALCHYYKLNII [ETV6_Y402_R399C] | 0.615
SMEGLYSSAQD [CLIC5_Y111_T114A] | 4.7
APSGNYVACGG [GNB1_Y111] | 0.513
ATGGFYSYGGG [KRT24_Y120] | 4.4
GFKVRYATWSI [FGFR1_Y210_YF] | 0.512
FKDGQYWIRGW [ACSF3_Y466_R471W] | 0.372
LKGIRYLTSGL [PIGA_Y82_R77L] | 1.01
MFNPCYGLFEY [NEDD4L_Y680_Y679C] | 1.6
GGQVFYNSEYG [FLT4_Y1333] | 0.36
SSPMKYQQNVS [EGFEM1P_Y160] | 0.392
MNPPPYSQLLS [FGF23_Y154_F157L] | 0.483
SDVCMYRKNTF [SYNE2_Y570_I574T_YF] | 0.382
SGGSSYGSGGG [KRT1_Y532] | 0.397
KKMEVYQSIAD [MYBPC3_Y548_L545M] | 0.508
